The values that follow come from paper PMC4238058.

For test [1], the target named is triply phosphorylated His8-tagged Nephrin cytoplasmic tail (amino acids 1174-1223, Y1183F, Y1210F; pTyr1176, pTyr1193, pTyr1217) (human).
In test [2] the target is triply phosphorylated TIR3Y (His8-tagged human Nephrin tail with its pTyr sites replaced by the pTyr motif of EPEC Tir) (EPEC | human).
For test [3], the target named is (SH3)3: three repeats of the second Nck SH3 domain, plus the Nck SH2 domain (human).

“(SH3)3: three repeats of the second Nck SH3 domain, plus the Nck SH2 domain (designed binder)” returned a clustering concentration of (SH3)3 (SH3 module concentration) on bilayers with p-Nephrin and 500 nM N-WASP in test [1] of 200 nM. Also, the clustering concentration of (SH3)3 (SH3 module concentration) on bilayers with p-TIR at 2000 molecules/um^2 and 500 nM N-WASP in test [2] turned out to be 100 nM.
On to “TIR-1pY: N-terminal rhodamine labeled single pTyr motif from EPEC Tir protein (peptide)”, for which the equilibrium fractional intensity of p-Nephrin clusters (1 uM (SH3)3, 500 nM N-WASP) against peptide concentration, 100 nM to 100 uM; the pair that is blocked: (SH3)3 with p-Nephrin in test [3] is above 10 µM.
